Assay results taken from the supplement of paper PMC9170038.

Tested on: MS2 coat protein
Experiment: apparent KD of MS2 coat protein; designed switch direction (-1 OFF switch, 1 ON switch): -1; higher = weaker reporter binding
Procedure, shortened: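 Stalled E. coli RNA polymerase transcribed designed RNA switches on Illumina chips, which were then titrated with SNAP-549-labelled MS2 coat protein, doubling from 0.7 or 1.5 nM to 3 µM. Steps lasted from 0.8–1.5 h at the lowest concentration to 10–20 min at the highest. The apparent KD is each design's median over clusters of curve-fitted normalised fluorescence.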

[1] = input ligand: microRNA oligo, concentration not stated
[2] = Eterna round: R95, input ligand: FMN 200 uM
[3] = Eterna round: R95, input ligand: microRNA oligo, concentration not stated
[4] = Eterna round: R95, input ligand: none

Sequence	apparent KD of MS2 coat protein (input ligand: FMN 200 uM)	apparent KD of MS2 coat protein [1]	apparent KD of MS2 coat protein (input ligand: none)	apparent KD of MS2 coat protein [2]	apparent KD of MS2 coat protein [3]	apparent KD of MS2 coat protein [4]
UUAAAUCAUGUAGGAUAUGCGUGGCGAAGCUAUGCAGAAGGACAUGAGGAUCACCCAUGUCUUUCCGUCUGCGUACAGAUGGAG [JL Eng1 1.08 mod 4] (Eterna round: R96, puzzle: Exclusion NG 1)	0.191 µM	0.0174 µM	0.0247 µM	–	–	–
AAGAGGUCAGGAUAUACGGGAAGAGAGAGAAGUAGAGGGUAACAUGAGGAUCACCCAUGUAGAAGGGACUAAGA [JR_Exclu2_Sub072] (puzzle: Exclusion 2)	–	–	–	0.0345 µM	0.0296 µM	0.0334 µM
ACAAGCUUUUUGUUCGUCUUAUAAUAAUAAAUAAAUAUAACAUGAGGAUCACCCAUGUUGAGAAGACAACCUCAUGU [Sesor Array 24 - Jieux - Sensor v3, turn-off variant 2] (puzzle: Sensor v3, turn-off variant 2)	–	–	–	0.242 µM	0.108 µM	0.42 µM
GCCAGAGCAGGAUAUUCAAUAUCACACAUGAGGAUCACCCAUGUCCGGCGAAAGCUGGAGGGAGAAGGGCUCUGGC [Fiskers Ex 5 - 14] (puzzle: Exclusion 5)	–	–	–	–	0.0494 µM	–
UUUCCCUGGCAAGGAUAUCCUGUGCGGUUCCGGCUCGUGUCUGUUACAUGAGGAUCACCCAUGUGGGAGAAGGUGCCUGUGGCU [Design 91] (Eterna round: R96, puzzle: Exclusion NG 2)	–	0.0474 µM	–	–	–	–
UUGCAGUCGUCAGGAUAUAGUAUUACGGCCUUUCAUUUCUUCAUACAUGAGGAUCACCCAUGUCGCUAGAAGGGCUUCUCGCUU [salish99_ExNG2_r04_109] (Eterna round: R96, puzzle: Exclusion NG 2)	0.0153 µM	0.0146 µM	0.0176 µM	–	–	–
GAUGGAGAGCAGGAUAUCUUGGGUAAGCAUCAUAGAGAAGGGCUCACAUGAGGAUCACCCAUGUGGUCCUAGAA [Ateedza] (puzzle: Exclusion 6)	–	–	–	0.0307 µM	0.0162 µM	0.0149 µM
AAUAAUAAGGAGGAUAUCGUAUCGGAAACGAUACGAGAAGGCCUAACAUGAGGAUCACCCAUGUUCCUCAAUAA [Fiskers Ex 6 - 2] (puzzle: Exclusion 6)	–	–	–	1.32 µM	0.297 µM	0.311 µM
GCACGGAGUGUAGGAUAUCUGUGCGAUUAGCUCAGAGAAGGACACAUGAGGAUCACCCAUGUGUUCCACCGAAAGGUUCCGUGC [Eli exng1 - 048] (Eterna round: R96, puzzle: Exclusion NG 1)	0.011 µM	0.0084 µM	0.0114 µM	–	–	–
GCAGCAUAGUGUAAUAACACAAUACAUGAGGAUCACCCAUGUGAGGAUAUGGACUGGAUUACAGUCCAGAAGGCACAAAGCUGC [Zipper Style 2] (Eterna round: R96, puzzle: Exclusion NG 3)	0.0199 µM	0.0133 µM	0.0211 µM	–	–	–
UAAACAUGGAUAUAACAGUACAUGAGGAUCACCCAUGUUAAUAUGAUAGAUUAUAACAAGUUUUUUUGUCGUCUUAA [Tabletop] (Eterna round: R97, puzzle: Sensor, turn-off variant 1)	0.085 µM	–	0.088 µM	–	–	–
CAAACGGCUUUAGGAUAUGACUUUUCGUACAUGAGGAUCACCCAUGUCAGGACUGGUGGUGCGAGUCAGAAGGAGAGUCAAGAA [Eternabot solution 30] (Eterna round: R96, puzzle: Exclusion NG 2)	0.0943 µM	0.0992 µM	0.176 µM	–	–	–
CCGCUAAUAGGAUAUACAUGAGGAUCACCCAUGUCACUCUUCAUUGGUGUCUCUUCAAGUAGAAGGGUUGCUCA [Atisdi] (puzzle: Exclusion 3)	–	–	–	–	0.0284 µM	–
GGGCCCGGAGGAUAUACAAUUUUGGGCCGAAAGGCCCGGGUACAUGAGGAUCACCCAUGUAGAAGGCCGGGCCC [-41.7, -39.1 kcal A 24%, 5a,0] (Eterna round: R97, puzzle: Exclusion 2)	0.134 µM	–	0.0324 µM	–	–	–
GAGGCAUGCUGAGGUCCACACAUGAGGAUCACCCAUGUAAUGACAAGCUUUUUCCUCGUCUUAUCGCUAUCGCGUUC [Dilaenla] (Eterna round: R96, puzzle: Sensor v3, turn-off variant 1)	0.0131 µM	0.0222 µM	0.0163 µM	–	–	–
UCGCCGCCCUUGGGCGGCGACAUGAGGAUCACCCAUGUCAAGCUUUUUGCUCGUUUUAUAGCCGGCCUUGGCCGGCA [Olib_3] (Eterna round: R97, puzzle: Sensor, turn-off variant 1)	0.0279 µM	–	0.0294 µM	–	–	–
ACGUGAUAUCUGUCGGUGGACAUGAGGAUCACCCAUGUGAGCUUUUUGCUCGUCUUACAACCCGGUGACAGACCUUC [Bebitier] (puzzle: Sensor v3, turn-off variant 1)	–	–	–	0.0236 µM	0.262 µM	0.0214 µM
GAUAAGGUAGGAUAUACGAAGAAAGAGGGUAGUAAUAAUACACAUGAGGAUCACCCAUGUAGAAGGACCAAUAG [Mat - Exclusion 2 - Mod of my Tesla design - D43] (puzzle: Exclusion 2)	–	–	–	0.0391 µM	0.026 µM	0.0264 µM
AUCAGCUCGUGAGGAUAUAUUAACAUGAGGAUCACCCAUGUAAGAUCAGGCUUCGGCCAAUGUUAAUAGAAGGCACGAGCUGAU [ENG2/12-A2] (Eterna round: R96, puzzle: Exclusion NG 2)	0.239 µM	0.0563 µM	0.17 µM	–	–	–
GAGAAGGUAGGAUAUACGAAUAAAAAGGGUAGAAGAAGAACACAUGAGGAUCACCCAUGUAGAAGGACCAAGAG [Mat - Exclusion 2 - Mod of my Tesla design - D22] (puzzle: Exclusion 2)	–	–	–	0.044 µM	0.0172 µM	0.0176 µM
CCGGAAAGGAAGGAUAUGCUAGACGAAAGUCUAGCAGAAGGUCCUACAUGAGGAUCACCCAUGUGGCCUCCCGG [Eli x6 4.09] (Eterna round: R97, puzzle: Exclusion 6)	0.267 µM	–	0.137 µM	–	–	–
UAUUAUCAAGCAAGAUCCCACAUGAGGAUCACCCAUGUGCUCGUCUUAUUUCUGGCCUUAUUGGUCUCUCGUCUAAU [JR_STOV1_v2_Sub095] (Eterna round: R97, puzzle: Sensor, turn-off variant 1)	0.0258 µM	–	0.0267 µM	–	–	–
GCACAGGCAGGAUAUACAUGAGGAUCACCCAUGUGAUCCCUUAGGUACAAAAGUACAAGUAGAAGGGCCUGUGC [Omei Ex3 Model Bachelor's Dilema v45] (Eterna round: R97, puzzle: Exclusion 3)	0.146 µM	–	1.46 µM	–	–	–
GUAGAGUCAGGAUAUACAAGAUCGAUAGAUCAAAGGUCCAUACAUGAGGAUCACCCAUGUAGAAGGGACUCUAC [Mat - Exclusion 2 - Eli Mod - D9] (Eterna round: R97, puzzle: Exclusion 2)	0.0372 µM	–	0.0179 µM	–	–	–
AAAAGGAUAGGAUAUGCUCUAGGACACUUGAGGAUCACCCAAGUGUCGGCAAGGUCCUAGGCAGAAGGAUCUGGCA [Onordibi] (Eterna round: R97, puzzle: Exclusion 5)	0.0883 µM	–	0.0299 µM	–	–	–
